In patent US20160097096A1 (KOREA RESEARCH INSTITUTE OF BIOSCIENCE AND BIOTECHNOLOGY, published 2016):

Biological target: T1, human Desmoglein 2 (Dsg2) (human, UniProt Q14126 50-1118)
T1 construct: whole, on cells; Endogenous protein; In flow cytometry it stood on the surface of H1, H9 and iPSC cells; In immunoprecipitation and Western blotting it came from lysate of (surface-biotinylated) H9 cells, with bands of 165 kDa or 100 kDa
T1 sequence (looked up): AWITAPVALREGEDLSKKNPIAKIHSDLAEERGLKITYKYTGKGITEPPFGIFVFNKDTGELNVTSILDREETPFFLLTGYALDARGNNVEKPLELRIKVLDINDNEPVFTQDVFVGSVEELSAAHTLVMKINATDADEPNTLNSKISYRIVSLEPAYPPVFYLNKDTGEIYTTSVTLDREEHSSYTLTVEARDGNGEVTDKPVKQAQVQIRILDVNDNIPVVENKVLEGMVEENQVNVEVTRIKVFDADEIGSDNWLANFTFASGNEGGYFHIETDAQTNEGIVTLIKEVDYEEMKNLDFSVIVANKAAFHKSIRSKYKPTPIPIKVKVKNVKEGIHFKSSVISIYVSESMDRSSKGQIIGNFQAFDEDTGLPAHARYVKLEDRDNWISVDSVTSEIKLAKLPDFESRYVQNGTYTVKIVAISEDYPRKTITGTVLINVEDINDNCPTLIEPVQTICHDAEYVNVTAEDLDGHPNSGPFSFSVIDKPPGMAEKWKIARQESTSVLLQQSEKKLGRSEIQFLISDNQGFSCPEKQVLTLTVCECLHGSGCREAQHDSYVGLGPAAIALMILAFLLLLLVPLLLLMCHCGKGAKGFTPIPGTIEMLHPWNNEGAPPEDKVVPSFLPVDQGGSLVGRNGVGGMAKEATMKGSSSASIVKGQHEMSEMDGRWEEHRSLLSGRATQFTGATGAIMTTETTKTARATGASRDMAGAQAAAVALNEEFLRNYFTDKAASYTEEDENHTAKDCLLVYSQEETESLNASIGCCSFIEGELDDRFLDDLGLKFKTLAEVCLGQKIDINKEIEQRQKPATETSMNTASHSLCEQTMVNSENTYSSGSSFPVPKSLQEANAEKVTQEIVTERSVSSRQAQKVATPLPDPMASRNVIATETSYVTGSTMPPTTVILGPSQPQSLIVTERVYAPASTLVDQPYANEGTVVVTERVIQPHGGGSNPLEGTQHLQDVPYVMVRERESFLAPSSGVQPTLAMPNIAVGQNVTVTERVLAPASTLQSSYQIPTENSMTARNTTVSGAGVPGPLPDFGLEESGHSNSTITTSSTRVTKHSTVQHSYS
Assay: flow cytometry, fluorescence staining of H1, H9 and iPSC cells (endogenous Dsg2 on the surface)
Procedure: Among those clones prepared in Example 2, the hybridoma clone which secreted the antibody comparatively stably was selected and the binding capacity to human pluripotent stem cells was investigated. Particularly, the cultured human pluripotent stem cells were separated by using collagenase IV. The cells were treated with cell separation buffer (GIBCO) for 20 minutes at 37° C., leading to the separation of the cells as single cells. The cells were passed through 40 μm strainer, and 2×10⁵ cells proceeded to flow cytometry. The human pluripotent stem cells prepared as single cells were suspended in PBA (1% BSA was dissolved in PBS), followed by reaction with the antibody supernatant at 4° C. for 30 minutes. Centrifugation was performed at 4° C. at 1200 rpm for 5 minutes and 100 μl of the supernatant was eliminated. The anti-mouse Ig-FITC (BD) was diluted (1:200). […]
To investigate the binding capacity of the antibody 6-1 purified in Example <3-2> to human pluripotent stem cells, fluorescence staining was performed by the same manner as described in Example <3-1> (FIG. 2A). […] In FIG. 2A, the blue line illustrates the fluorescence staining of human pluripotent stem cells with the monoclonal antibody 6-1, wherein the antibody 6-1 bound to all of those three kinds of human pluripotent stem cells.

B1: monoclonal antibody 6-1 (antibody, V domains shown)
VH: QVKLQESGPELVRPGESVKISCKGSGYTFTDYAMHWVKQSPAKTLEWLGVISIYYDNTNYNQKFKGKATLTVDKSSSTAYMELARLTSEDSAIYYCAREGDYFALDYWGQGTSVTVSS
VL: DIVMTQSPAIMSASPGEKVTMTCSASSSVSYMYWYQQKPGSSPRLLIYDTSNLASGVPVRFSGSGSGTSYSLTISRMEAEDAATYYCQQWSSFPLTFGAGTKLELKR
notes: Mouse monoclonal antibody from hybridoma 6-1 (Balb/c mouse immunised with H9 cells, fused with NS1 myeloma); Purified from ascites on protein G-sepharose; hybridoma supernatant was used for screening; They were cloned with an IgG1 constant region primer and a kappa chain constant region primer
binding result: binds
